No end group written: not given here. *: point of attachment. NH(CH2)5NH2 = NCCCCCN*
B11: E. coli CsgG (wild-type) fused C-terminally to a Strep-II tag, outer membrane pore (other)
chain: CLTAPPKEAARPTLMPRAQSYKDLTHLPAPTGKIFVSVYNIQDETGQFKPYPASNFSTAVPQSATAMLVTALKDSRWFIPLERQGLQNLLNERKIIRAAQENGTVAINNRIPLQSLTAANIMVEGSIIGYESNVKSGGVGARYFGIGADTQYQLDQIAVNLRVVNVSTGEILSSVNTSKTILSYEVQAGVFRFIDYQRLLEGEVGYTSNEPVMLCLMSAIETGVIFLINDGIDRGLWDLQNKAERQNDILVKYRHMSVPPES
modifications: N-terminal lipidation of mature CsgG (Cys at the N-terminal position)
notes: Nonameric pore; dimers of nonamers also seen; also called CsgG-Strep; CsgG-strep; not shown: C-terminal Strep-II tag

Columns and labels:
[1] = target: the molecule itself; assay: size exclusion chromatography (S200 increase) of Strep- and ion-exchange-purified CsgG pore; pore-pore dimer
[2] = target: T1, CsgG Y51A/N55V/F56Q/N91R/K94Q/R97W-del(V105-I107) pore containing the C terminal strep tag (E. coli, UniProt P0AEA2 16-277); assay: reconstitution with synthetic peptide, electrophysiology
T1 construct: Oligomeric CsgG pore; also called Y51A/F56Q/N55V/N91R/K94Q/R97W-del(V105-I107); not shown: C-terminal Strep tag
T1 chain: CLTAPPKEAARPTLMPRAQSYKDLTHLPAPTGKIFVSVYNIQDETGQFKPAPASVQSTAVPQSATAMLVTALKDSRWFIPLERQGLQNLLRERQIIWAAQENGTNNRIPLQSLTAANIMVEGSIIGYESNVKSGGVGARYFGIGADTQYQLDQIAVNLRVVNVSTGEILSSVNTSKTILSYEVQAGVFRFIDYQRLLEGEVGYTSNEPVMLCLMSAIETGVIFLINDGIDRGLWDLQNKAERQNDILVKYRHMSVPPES

[3] = target: B11; assay: cryo-EM of co-purified or in vitro reconstituted CsgG:CsgF particles
[4] = target: B11; assay: co-expression, Strep affinity purification, anti-His dot blot
[5] = target: B11; assay: in vitro reconstitution (2:1 molar ratio), StrepTactin pull down, native PAGE with fluorescence
[6] = target: T2, CsgG Y51A/F56Q/K94Q/R97W/R192D-del(V105-I107), Strep-tagged (E. coli, UniProt P0AEA2 16-277); assay: as above
T2 construct: Oligomeric CsgG pore; also called CsgG mutant with altered constriction; not shown: Strep tag
T2 chain: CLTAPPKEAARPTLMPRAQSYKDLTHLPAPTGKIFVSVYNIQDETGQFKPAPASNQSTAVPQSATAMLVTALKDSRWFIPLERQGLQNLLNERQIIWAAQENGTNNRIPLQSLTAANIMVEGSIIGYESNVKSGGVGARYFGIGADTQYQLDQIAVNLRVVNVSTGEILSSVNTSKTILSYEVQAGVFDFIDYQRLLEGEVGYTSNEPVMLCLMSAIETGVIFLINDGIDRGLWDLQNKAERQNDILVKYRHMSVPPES

[7] = target: T3, CsgG Y51A/F56Q/N91R/K94Q/R97W-del(V105-I107) pore containing the C terminal strep tag (E. coli, UniProt P0AEA2 16-277); assay: co-expression, purification, TEV cleavage; DNA translocation current recording
T3 construct: Oligomeric CsgG pore; not shown: C-terminal Strep tag
T3 chain: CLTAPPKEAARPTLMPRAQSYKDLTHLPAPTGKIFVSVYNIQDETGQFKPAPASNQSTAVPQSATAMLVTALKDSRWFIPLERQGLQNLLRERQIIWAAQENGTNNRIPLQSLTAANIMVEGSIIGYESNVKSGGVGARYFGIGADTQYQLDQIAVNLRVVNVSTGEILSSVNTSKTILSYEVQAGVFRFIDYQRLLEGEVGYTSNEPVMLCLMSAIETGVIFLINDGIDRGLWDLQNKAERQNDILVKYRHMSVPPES

[8] = target: T4, CsgG Y51T/N55V/F56Q/N91R/K94Q/R97W-del(V105-I107) pore containing the C terminal strep tag (E. coli, UniProt P0AEA2 16-277); assay: panel B; in vitro reconstitution; DNA translocation current recording
T4 construct: not shown: C-terminal Strep tag
T4 chain: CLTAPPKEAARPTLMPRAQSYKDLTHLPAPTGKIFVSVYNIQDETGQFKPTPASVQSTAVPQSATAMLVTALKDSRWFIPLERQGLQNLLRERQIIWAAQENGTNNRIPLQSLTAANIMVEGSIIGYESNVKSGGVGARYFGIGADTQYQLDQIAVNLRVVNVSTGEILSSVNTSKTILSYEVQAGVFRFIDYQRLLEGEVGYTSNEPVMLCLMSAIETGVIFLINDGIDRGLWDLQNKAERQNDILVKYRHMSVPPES

[9] = target: T5, CsgG Y51A/F56A/N91R/K94Q/R97W-del(V105-I107) pore containing the C terminal strep tag (E. coli, UniProt P0AEA2 16-277); assay: panel D; in vitro reconstitution; DNA translocation current recording
T5 construct: not shown: C-terminal Strep tag
T5 chain: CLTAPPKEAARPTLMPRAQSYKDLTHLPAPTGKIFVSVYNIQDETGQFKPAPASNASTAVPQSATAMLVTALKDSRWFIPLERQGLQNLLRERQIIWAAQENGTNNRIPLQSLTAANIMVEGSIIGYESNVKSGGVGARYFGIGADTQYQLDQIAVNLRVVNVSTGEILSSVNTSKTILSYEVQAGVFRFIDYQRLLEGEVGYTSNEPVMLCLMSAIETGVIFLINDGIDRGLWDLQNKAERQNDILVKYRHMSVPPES

[10] = target: T1, CsgG …; assay: in vitro reconstitution; DNA translocation current recording
[11] = target: T6, CsgG Y51A/N55I/F56Q/N91R/K94Q/R97W-del(V105-I107) pore containing the C terminal strep tag (E. coli, UniProt P0AEA2 16-277); assay: panel C; in vitro reconstitution; DNA translocation current recording
T6 construct: also called Y51A/N551/F56Q/N91R/K94Q/R97W-del(V105-I107) (sic); not shown: C-terminal Strep tag
T6 chain: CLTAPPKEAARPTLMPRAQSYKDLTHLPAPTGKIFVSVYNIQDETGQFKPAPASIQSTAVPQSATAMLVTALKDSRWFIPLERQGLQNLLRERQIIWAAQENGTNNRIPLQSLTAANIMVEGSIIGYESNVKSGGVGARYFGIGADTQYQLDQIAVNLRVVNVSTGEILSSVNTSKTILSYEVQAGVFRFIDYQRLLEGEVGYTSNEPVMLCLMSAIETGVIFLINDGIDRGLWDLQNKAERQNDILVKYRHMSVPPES

[12] = target: T7, CsgG Y51S/N55V/F56Q/N91R/K94Q/R97W-del(V105-I107) pore containing the C terminal strep tag (E. coli, UniProt P0AEA2 16-277); assay: panel F; in vitro reconstitution; DNA translocation current recording
T7 construct: also called Y515/N55V/F56Q/N91R/K94Q/R97W-del(V105-I107) (sic); not shown: C-terminal Strep tag
T7 chain: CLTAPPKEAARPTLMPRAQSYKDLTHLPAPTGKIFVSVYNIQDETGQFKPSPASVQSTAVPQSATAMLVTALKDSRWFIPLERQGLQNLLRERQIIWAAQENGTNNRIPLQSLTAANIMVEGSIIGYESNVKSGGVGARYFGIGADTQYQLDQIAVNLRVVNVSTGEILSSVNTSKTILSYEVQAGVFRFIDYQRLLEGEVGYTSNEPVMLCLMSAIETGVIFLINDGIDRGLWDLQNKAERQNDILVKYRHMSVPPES

[13] = target: the molecule itself; assay: size exclusion chromatography (Superose 6); pore-pore dimer

B1: Pro-CP1-Eco-(WT-Y51A/F56Q/D149N/E185N/E201N/E203N-StrepII(C)) CsgG pore (other)
chain: CLTAPPKEAARPTLMPRAQSYKDLTHLPAPTGKIFVSVYNIQDETGQFKPAPASNQSTAVPQSATAMLVTALKDSRWFIPLERQGLQNLLNERKIIRAAQENGTVAINNRIPLQSLTAANIMVEGSIIGYESNVKSGGVGARYFGIGANTQYQLDQIAVNLRVVNVSTGEILSSVNTSKTILSYNVQAGVFRFIDYQRLLNGNVGYTSNEPVMLCLMSAIETGVIFLINDGIDRGLWDLQNKAERQNDILVKYRHMSVPPESSAWSHPQFEK
notes: The entry already holds the mutations and the StrepII tag; also called Pro-CP1-Eco-(Mutant-StrepII(C)); monomeric pore
B1: binds [1].

B2: CsgF-(1-30) synthetic peptide (peptide)
peptide: GTMTFQFRNPNFGGNPNNGAFLLNSAQAQN
notes: Range counted on mature CsgF; also called mature peptide of CsgF 1:30
B2: binds [2].

B3: CsgF-(1-29) synthetic peptide (peptide)
peptide: GTMTFQFRNPNFGGNPNNGAFLLNSAQAQ
B3: binds [2].

B4: E. coli CsgF (mature) with C-terminal 6x histidine tag (other)
chain: GTMTFQFRNPNFGGNPNNGAFLLNSAQAQNSYKDPSYNDDFGIETPSALDNFTQAIQSQILGGLLSNINTGKPGRMVTNDYIVDIANRDGQLQLNVTDRKTGQTSTIQVSGLQNNSTDFHHHHHH
notes: also called CsgF-His; CsgF-his
B4: binds [3].

B5: CsgF 20:64 peptide with C-terminal 6xHis (from pNA100) (peptide)
peptide: GTMTFQFRNPNFGGNPNNGAFLLNSAQAQNSYKDPSYNDDFGIETHHHHHH
notes: first 45 residues of mature CsgF; also called CsgF fragment 1-64; CsgF 1-64
B5: binds [4].

B6: Alexa 594-labelled synthetic CsgF peptide corresponding to the first 34 residues of mature CsgF (peptide)
peptide: GTMTFQFRNPNFGGNPNNGAFLLNSAQAQNSYKD-{NH(CH2)5NH2-Alexa594}
notes: also called CsgF N-terminal peptide; FCP
B6: binds [5]; binds [6].

B7: CsgF truncated at position 35 by TEV protease cleavage, with ENLYFQ left at the cleavage site (peptide)
peptide: GTMTFQFRNPNFGGNPNNGAFLLNSAQAQNSYKDPENLYFQ
notes: also called CsgF truncated protein; No mutations at 17 position of CsgF
B7: binds [7].

B8: CsgF N17S truncated at position 35 by TEV protease cleavage, with ENLYFQ left at the cleavage site (peptide)
peptide: GTMTFQFRNPNFGGNPSNGAFLLNSAQAQNSYKDPENLYFQ
notes: also called N175 mutation in CsgF (sic, N17S)
B8: binds [7].

B9: CsgF-N17S-(1-35) peptide (peptide)
peptide: GTMTFQFRNPNFGGNPSNGAFLLNSAQAQNSYKDP
notes: also called CsgF-N175-(1-35) (sic)
B9: binds [8]; binds [9]; binds [10]. B9: binds [11]; binds [12].

B10: CsgF-N17V-(1-35) peptide (peptide)
peptide: GTMTFQFRNPNFGGNPVNGAFLLNSAQAQNSYKDP
B10: binds [10].

B11: binds [13].
